# Laboratory results as given in article doi:10.1101/2022.07.16.500195 (bioRxiv, 2022).
# Where two headings read alike, the source gives them in different places.
# B1: PulLCTD (C-terminal domain of PulL, residues 312-398) (domain or fragment, Klebsiella oxytoca)
# chain: SNAGARPALISRLGALQQIIDDTPGIRLRTLSFDAARNALQLEISAVSSQALEQFSQRARARFRVQTGEMKPRADGIEGRLTLEGNDA
# B2: PulMCTD (C-terminal domain of PulM, residues 79-161) (domain or fragment, Klebsiella oxytoca)
# chain: SPEEPSTVIMREAARHGLTIVRLQPQGSRLSLTVQPADFQALMAWLDALGQAGMTTATLAVTAVAQQPGWVTVNTLVLERSDEK
# Columns and labels:
# AUC + other: NMR = biological target: the molecule itself; assay: AUC + other: NMR
# [1] = biological target: B2; assay: NMR titration
# [2] = biological target: B1; assay: native MS
# [3] = biological target: the molecule itself
Binder,stoichiometry N (AUC + other: NMR),stoichiometry N [1],binding result [2],stoichiometry N [3]
B1,2,1 PulLCTD per PulMCTD,,
B2,,,binds,2
